The values below are quoted from earlier work in paper PMC5904255.

The data set has as its target C1q (Homo sapiens) (UniProt P02745).

C1q (Homo sapiens), sequence (P02745 23-245, chain 1 of 3): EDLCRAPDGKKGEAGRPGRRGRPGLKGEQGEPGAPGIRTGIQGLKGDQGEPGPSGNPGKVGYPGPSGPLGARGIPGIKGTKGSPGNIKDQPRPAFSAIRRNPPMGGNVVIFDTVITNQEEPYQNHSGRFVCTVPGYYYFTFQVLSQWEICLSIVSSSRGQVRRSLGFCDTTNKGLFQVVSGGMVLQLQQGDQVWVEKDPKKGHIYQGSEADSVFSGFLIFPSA
C1q (Homo sapiens), sequence (P02746 28-253, chain 2 of 3, further chain): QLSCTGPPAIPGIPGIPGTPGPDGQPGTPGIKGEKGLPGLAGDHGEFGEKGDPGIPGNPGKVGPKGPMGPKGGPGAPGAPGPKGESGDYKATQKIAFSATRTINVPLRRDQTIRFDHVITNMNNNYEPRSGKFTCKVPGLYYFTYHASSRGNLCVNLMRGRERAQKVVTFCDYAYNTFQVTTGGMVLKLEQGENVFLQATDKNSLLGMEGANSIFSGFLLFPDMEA
C1q (Homo sapiens), sequence (P02747 29-245, chain 3 of 3, further chain): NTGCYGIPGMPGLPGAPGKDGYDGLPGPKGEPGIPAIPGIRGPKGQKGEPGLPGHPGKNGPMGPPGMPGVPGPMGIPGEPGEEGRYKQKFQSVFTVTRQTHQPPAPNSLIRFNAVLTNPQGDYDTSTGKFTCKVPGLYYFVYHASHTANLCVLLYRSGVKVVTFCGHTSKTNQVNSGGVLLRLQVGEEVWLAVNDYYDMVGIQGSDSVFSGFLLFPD
HMGB1, sequence (P09429 whole entry): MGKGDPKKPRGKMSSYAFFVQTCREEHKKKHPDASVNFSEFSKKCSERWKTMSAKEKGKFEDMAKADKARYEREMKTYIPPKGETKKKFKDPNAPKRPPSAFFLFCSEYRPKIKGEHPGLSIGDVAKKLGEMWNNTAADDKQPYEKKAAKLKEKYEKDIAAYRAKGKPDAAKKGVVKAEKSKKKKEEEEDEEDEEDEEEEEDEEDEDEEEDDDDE

For HMGB1 (from UniProt P09429), the Kd is 200 nM.
